2 molecules from US20230220047A1 (NORWEGIAN UNIVERSITY OF SCIENCE AND TECHNOLOGY NTNU, published 2023) can be followed below.

Ends that are not written are not given here.

Experiment [1] has as its target T1, IRAK2 (endogenous, human) (human, UniProt O43187 1-625).
T1 sequence (looked up): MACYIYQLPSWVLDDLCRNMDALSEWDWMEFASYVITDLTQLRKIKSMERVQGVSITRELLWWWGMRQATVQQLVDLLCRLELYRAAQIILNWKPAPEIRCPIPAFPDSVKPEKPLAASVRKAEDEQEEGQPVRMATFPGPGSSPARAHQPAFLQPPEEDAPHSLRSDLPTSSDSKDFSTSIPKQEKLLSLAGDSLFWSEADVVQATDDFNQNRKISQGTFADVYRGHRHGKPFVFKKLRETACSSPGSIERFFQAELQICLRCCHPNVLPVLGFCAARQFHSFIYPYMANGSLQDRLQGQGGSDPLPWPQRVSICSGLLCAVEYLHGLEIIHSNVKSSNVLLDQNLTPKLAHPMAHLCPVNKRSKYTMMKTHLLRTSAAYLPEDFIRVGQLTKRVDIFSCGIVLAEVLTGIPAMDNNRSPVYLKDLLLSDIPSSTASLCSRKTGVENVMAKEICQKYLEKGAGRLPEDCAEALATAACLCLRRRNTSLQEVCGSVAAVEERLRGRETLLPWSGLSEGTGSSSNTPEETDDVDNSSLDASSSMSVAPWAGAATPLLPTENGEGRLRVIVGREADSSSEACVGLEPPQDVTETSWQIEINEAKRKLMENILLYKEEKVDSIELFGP
The experiment is described as follows: endogenous co-precipitation with anti-SLAMF1 mAb (E-11) on magnetic beads from primary human macrophages, Western blot. The procedure:
The SLAMF1 and TRAM interaction was used as a positive control. Primary human macrophages were pre-treated with 15 μM peptides for 30 min, stimulated with LPS for another 15′, 30′ or 1 h, lysed and used for co-precipitation with anti-SLAMF1 mouse mAbs (E-11) covalently bound to magnetic beads, followed by Western blot analysis. Proteins in lysates were analysed as input control.
Indeed, a potential P7-Pen interaction motif is located within the protein kinase domain of IRAK4. Alignment of IRAKs with the TRAM-derived sequence that is targeted by the peptide identified sequences in IRAK1 and IRAK4 that are highly similar to the P7-interacting motif in TRAM/TICAM2 (not shown). […] IRAK4 also co-precipitated with GST-SLAMF1ct in GST pull down assays from lysates of primary human macrophages (data not shown).
In general terms: In western blotting, separated proteins are transferred to a membrane and probed.

In experiment [2] the target is T2, human TRAM (endogenous in primary human macrophages, or overexpressed in HEK 293T cells) (human, UniProt Q86XR7 2-235, limits assumed).
T2 construct: also called TICAM2
T2 sequence (Q86XR7 2-235 limits assumed): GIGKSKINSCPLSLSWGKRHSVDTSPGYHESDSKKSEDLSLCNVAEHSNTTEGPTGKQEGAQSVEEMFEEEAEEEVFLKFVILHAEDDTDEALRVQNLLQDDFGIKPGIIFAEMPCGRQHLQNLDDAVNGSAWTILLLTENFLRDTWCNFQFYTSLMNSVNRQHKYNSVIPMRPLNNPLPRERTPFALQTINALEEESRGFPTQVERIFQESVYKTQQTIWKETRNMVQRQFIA
Kind of experiment: C-terminally biotinylated peptide on Neutravidin agarose, lysates of HEK 293T cells overexpressing TRAM. The procedure: (§1) Immunoprecipitations with the biotinylated peptides Penetratin-biotin and Pep7-Penetratin-biotin (synthesised by custom order by GenScript) were performed by coating NeutrAvidin® Agarose Resin (Thermo Scientific) with peptide by incubating 40 μl 50% agarose slurry with 10 μl 2 mM peptides in 300 μl lysis buffer (for one precipitation reaction) (300 mM NaCl, 50 mM TrisHCl (pH 8.0), 1 mM EDTA, 1% Triton X100). Beads were washed 3 times with lysis buffer to remove unbound peptides before applying cellular extracts. Cell lysis was performed in the same lysis buffer, both for HEK293T cells and primary human macrophages. Precipitations were carried out by rotation at 4° C. for 30′-1 h, followed by four washes with lysis buffer. Agarose resin with precipitated protein complexes was heated in loading buffer 1×NuPAGE® LDS Sample Buffer (Thermo Fisher Scientific) containing 20 mM DTT and analysed by Western blotting.
(§2) Murine disease models are the most accessible and widely used pre-clinical model for testing new drugs. […] To test the potential interaction of the P7 peptide with murine TRAM vs. human TRAM protein, we performed precipitations of C-terminally biotinylated Pen or P7-Pen peptides.

The target in experiment [3] is murine TRAM protein (overexpressed in HEK 293T cells) (murine, UniProt Q8BJQ4 2-232, limits assumed). The description is as above. The procedure:
as §1, §2

Experiment [4] deals with T3, TRAF6 (endogenous, human) (human, UniProt Q9Y4K3 1-522).
T3 sequence (looked up): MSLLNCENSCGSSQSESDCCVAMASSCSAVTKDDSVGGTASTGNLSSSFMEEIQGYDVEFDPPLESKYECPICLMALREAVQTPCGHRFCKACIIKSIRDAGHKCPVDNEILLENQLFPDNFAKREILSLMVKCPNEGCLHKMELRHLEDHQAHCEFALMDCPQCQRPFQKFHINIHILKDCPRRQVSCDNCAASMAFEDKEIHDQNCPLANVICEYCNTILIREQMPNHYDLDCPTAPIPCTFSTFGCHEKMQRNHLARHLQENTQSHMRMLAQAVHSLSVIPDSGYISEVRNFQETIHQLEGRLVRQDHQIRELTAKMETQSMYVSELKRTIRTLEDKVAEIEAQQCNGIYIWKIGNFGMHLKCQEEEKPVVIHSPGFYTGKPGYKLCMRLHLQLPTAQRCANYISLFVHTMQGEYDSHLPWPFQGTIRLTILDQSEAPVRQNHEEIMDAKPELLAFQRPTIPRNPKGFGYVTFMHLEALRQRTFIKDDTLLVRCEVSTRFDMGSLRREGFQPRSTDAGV
The experiment is described as follows: biotinylated peptide on NeutrAvidin beads, lysates of LPS-stimulated primary human macrophages, Western blot; within a complex. The procedure: (§3) Precipitations were performed using biotinylated peptides on lysates of primary human macrophages stimulated with LPS (100 ng/ml) for 15, 30 or 60 min and unstimulated cells (A), and stimulated with LPS for 30 or 60 min, or CL075/TLR8 ligand for 15 or 30 min (B).
as §1, with “blotting. […]” for “blotting.”

In experiment [5] the target is T4, MyD88 (endogenous, human) (human, UniProt Q99836 1-296).
T4 construct: also called Myeloid Differentiation primary response protein 88
T4 sequence (Q99836 whole entry): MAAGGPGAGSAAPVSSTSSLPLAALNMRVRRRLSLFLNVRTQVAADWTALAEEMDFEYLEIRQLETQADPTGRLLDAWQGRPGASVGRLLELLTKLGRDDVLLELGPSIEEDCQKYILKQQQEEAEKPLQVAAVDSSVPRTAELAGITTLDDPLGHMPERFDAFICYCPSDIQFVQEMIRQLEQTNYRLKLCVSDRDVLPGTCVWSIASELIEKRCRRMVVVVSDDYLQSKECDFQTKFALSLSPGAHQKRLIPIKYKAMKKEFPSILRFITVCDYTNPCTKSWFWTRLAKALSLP
The experiment is described as follows: biotinylated peptide on NeutrAvidin beads, lysates of primary human macrophages, Western blot; may be indirect, within a complex. The procedure: as §3, §1
(§4) To look for interactions between P7 and proteins in the Myddosome complex, biotinylated P7 peptides were pre-incubated with lysates of primary human macrophages (unstimulated and stimulated by LPS or CL075) and NeutrAvidin beads, followed by Western blot analysis of precipitates (FIG. 26). […] Upon stimulation with LPS, the complex of P7-interacting proteins attracted TRAF6 and TAK1 (FIG. 26A).

In experiment [6] the target is T5, IRAK1 (endogenous, human) (human, UniProt P51617 1-712, limits assumed).
T5 construct: SLAMF1 co-precipitated the ubiquitinated/phosphorylated form after LPS stimulation; also called interleukin 1 receptor-associated kinase 1; modified IRAK1
T5 sequence (P51617 whole entry): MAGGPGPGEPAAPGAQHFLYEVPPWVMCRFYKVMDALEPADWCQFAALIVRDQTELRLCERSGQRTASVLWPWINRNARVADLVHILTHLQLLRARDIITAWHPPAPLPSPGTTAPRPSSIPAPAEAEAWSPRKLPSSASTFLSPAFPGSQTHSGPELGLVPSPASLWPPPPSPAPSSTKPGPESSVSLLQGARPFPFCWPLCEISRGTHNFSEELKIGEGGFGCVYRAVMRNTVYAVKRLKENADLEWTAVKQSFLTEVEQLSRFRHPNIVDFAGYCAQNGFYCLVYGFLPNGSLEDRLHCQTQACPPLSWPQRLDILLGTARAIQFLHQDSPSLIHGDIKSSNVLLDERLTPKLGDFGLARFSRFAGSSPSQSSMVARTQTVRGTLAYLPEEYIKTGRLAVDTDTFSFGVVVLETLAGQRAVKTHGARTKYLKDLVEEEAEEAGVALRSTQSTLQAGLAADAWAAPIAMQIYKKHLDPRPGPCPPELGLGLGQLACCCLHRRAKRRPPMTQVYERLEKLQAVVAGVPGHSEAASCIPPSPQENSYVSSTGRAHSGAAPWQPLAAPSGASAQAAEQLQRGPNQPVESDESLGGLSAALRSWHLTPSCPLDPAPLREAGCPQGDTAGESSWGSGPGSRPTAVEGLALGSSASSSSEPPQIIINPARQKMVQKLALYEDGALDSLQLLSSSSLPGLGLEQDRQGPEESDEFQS
The experiment is described as above. The procedure:
as §3, §1, §4

The target in experiment [7] is T6, IRAK4 (endogenous, human) (human, UniProt Q9NWZ3 1-460).
T6 construct: also called interleukin 1 receptor-associated kinase 4
T6 sequence (looked up): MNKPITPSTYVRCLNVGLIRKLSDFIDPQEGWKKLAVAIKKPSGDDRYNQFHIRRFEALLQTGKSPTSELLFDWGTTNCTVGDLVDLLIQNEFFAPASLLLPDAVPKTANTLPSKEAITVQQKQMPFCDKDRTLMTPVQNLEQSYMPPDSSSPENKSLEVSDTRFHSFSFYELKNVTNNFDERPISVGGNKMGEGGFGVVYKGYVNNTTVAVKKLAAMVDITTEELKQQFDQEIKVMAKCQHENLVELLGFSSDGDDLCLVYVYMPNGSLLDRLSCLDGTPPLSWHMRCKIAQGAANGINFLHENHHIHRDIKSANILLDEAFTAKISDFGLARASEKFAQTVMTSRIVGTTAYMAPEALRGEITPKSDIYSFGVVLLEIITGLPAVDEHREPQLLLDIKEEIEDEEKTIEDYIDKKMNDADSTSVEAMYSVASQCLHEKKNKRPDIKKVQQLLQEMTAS
The description is as above. The procedure:
as §3, §1, §4

Experiment [8] has as its target T7, Mal (endogenous, human) (human, UniProt P58753 1-221, limits assumed).
T7 construct: also called Mal/TIRAP; MyD88-adaptor-like protein
Described as above. The procedure: as §3, §1, §4

T7 sequence (P58753 whole entry): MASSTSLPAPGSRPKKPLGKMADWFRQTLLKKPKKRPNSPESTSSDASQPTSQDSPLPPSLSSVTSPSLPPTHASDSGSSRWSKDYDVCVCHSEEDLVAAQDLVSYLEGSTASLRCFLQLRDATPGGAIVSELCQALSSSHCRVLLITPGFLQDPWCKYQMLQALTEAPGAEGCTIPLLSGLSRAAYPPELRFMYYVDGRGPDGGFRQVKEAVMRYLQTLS
Chain of murine TRAM protein (overexpressed in HEK 293T cells) (Q8BJQ4 2-232 limits assumed): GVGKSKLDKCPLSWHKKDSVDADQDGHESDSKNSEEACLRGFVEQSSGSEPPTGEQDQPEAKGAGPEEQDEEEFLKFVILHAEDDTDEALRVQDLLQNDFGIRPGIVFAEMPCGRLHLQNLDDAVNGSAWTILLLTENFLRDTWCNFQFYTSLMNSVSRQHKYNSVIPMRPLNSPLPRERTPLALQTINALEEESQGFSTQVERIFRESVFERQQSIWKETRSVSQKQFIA

B1: SLAMF1 (human, no tag stated; overexpressed in HEK293T cells or endogenous in primary human macrophages) (receptor, UniProt Q13291 21-335, looked up)
chain: ASYGTGGRMMNCPKILRQLGSKVLLPLTYERINKSMNKSIHIVVTMAKSLENSVENKIVSLDPSEAGPPRYLGDRYKFYLENLTLGIRESRKEDEGWYLMTLEKNVSVQRFCLQLRLYEQVSTPEIKVLNKTQENGTCTLILGCTVEKGDHVAYSWSEKAGTHPLNPANSSHLLSLTLGPQHADNIYICTVSNPISNNSQTFSPWPGCRTDPSETKPWAVYAGLLGGVIMILIMVVILQLRRRGKTNHYQTTVEKKSLTIYAQVQKPGPLQKKLDSFPAQDPCTTIYVAATEPVPESVQETNSITVYASVTLPES
notes: Used for SLAMF1 in the TRAM^Flag and Mal^Flag co-precipitations (no tag stated there) and for endogenous SLAMF1 precipitated with anti-SLAMF1 mAb E-11; also called SLAMF1 wt; SLAMF1 protein
Turning to B1, the binding result in experiment [1] is “no binding”.

B2: Pep7-Penetratin-biotin (C-terminally biotinylated P7-Pen) (peptide)
peptide: ITVYASVTLTGRQIKIWFQNRRMKWKK-biotin
modifications: not fully specified (N-terminus); also: biotin attachment not given here
notes: Custom synthesis by GenScript; immobilised on NeutrAvidin agarose; also called P7-Pen peptide; biotinylated P7 peptides
With B2, the binding result in experiment [2], in experiment [3], in experiment [4], in experiment [5], in experiment [6] and in experiment [7] was “binds” throughout. The binding result in experiment [8] is recorded as “binds”.
